Reference: paper PMC5739284 (Nature microbiology, 2017)

Molecular target: GST-His6-LC3B (recombinant) (human, UniProt Q9GZQ8 1-120)
Experiment: pull-down

Binder: SGGDDDWTHLSSK [synthetic p62 LIR peptide]
- binding result: binds
